Measured values taken from article PMC3750193, “Disassembly of All SNARE Complexes by N-Ethylmaleimide-sensitive Factor (NSF) Is Initiated by a Conserved 1:1 Interaction between α-Soluble NSF Attachment Protein (SNAP) and SNARE Complex*^([image sbox.jpg])” (The Journal of Biological Chemistry, 2013).

Tests used:
[1] = biological target: T1, ^ΔNVAMP7-^ΔNsyntaxin1-SNAP25 core complex (rat, UniProt Q9JHW5 119-190; P32851 191-265; P60881-2 1-206, S249C | K253C); assay: SEC-MALS; 30 μM SNARE complex and 30 μM α-SNAP (1:1 mixture); WTC-030S5 column; 20 mM Tris-HCl (pH 8.0), 50 mM NaCl, 0.1 mM TCEP; settings: both partners purified
T1 construct: VAMP7, rat, residues 119-190; syntaxin1A, rat, residues 191-265; the construct's printed name also holds C145S, which lies outside 191-265; SNAP25A, rat; also called ^ΔNSNARE complex; core of the VAMP7-syntaxin1-SNAP25 SNARE complex (without the N-terminal domains); source: E. coli, coexpressed, purified; copies: + +
T1 sequence (Q9JHW5 119-190, stated change not applied, chain 1 of 3): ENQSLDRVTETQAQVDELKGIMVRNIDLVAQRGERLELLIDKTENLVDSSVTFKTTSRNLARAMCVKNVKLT
T1 sequence (P32851 191-265 S249C/K253C, chain 2 of 3): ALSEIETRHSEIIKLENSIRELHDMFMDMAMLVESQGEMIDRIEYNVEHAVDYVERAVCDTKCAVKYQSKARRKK
T1 sequence (P60881 other isoform, or with tags, fused parts or gaps S249C | K253C | S249C | K253C | mutant, chain 3 of 3): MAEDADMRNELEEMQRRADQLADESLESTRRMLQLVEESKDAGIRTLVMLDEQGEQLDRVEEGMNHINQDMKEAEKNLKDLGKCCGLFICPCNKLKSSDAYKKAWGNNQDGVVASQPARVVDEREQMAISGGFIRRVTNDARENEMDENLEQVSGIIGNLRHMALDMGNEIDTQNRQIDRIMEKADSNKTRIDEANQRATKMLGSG

[2] = biological target: T2, VAMP7-syntaxin1-SNAP25 ternary SNARE complex, labeled with Oregon Green 488 (rat, UniProt Q9JHW5 1-190; P32851 1-265; P60881-2 1-206, C21S | C56V | C145S | S249C | K253C, Oregon Green 488 (maleimide) on cysteines; the labeled endogenous and mutant cysteines are shown in Figure 1A); assay: other fluorescence titration; change in Oregon Green 488 fluorescence intensity of the labeled SNARE complex as a function of α-SNAP concentration; fit y = Fmax·x/(KD + x); three independent experiments; settings: both partners purified
T2 construct: VAMP7, rat, residues 1-190; syntaxin1A, rat, residues 1-265; SNAP25A, rat; Removal of the His6 tag is told only for α-SNAP; also called VAMP7(1–190)-C21S/C56V-syntaxin1A(1–265)-C145S/S249C/K253C-SNAP25A; source: E. coli BL21(DE3), coexpressed, purified (Ni-NTA, Superdex 200); copies: + +
T2 sequence (Q9JHW5 1-190 C21S/C56V, chain 1 of 3): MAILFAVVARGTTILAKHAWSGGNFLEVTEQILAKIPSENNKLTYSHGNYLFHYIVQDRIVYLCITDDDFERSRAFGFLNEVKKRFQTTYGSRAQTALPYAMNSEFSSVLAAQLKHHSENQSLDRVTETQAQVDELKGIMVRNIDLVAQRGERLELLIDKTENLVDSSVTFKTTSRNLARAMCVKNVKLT
T2 sequence (P32851 1-265 C145S/S249C/K253C, chain 2 of 3): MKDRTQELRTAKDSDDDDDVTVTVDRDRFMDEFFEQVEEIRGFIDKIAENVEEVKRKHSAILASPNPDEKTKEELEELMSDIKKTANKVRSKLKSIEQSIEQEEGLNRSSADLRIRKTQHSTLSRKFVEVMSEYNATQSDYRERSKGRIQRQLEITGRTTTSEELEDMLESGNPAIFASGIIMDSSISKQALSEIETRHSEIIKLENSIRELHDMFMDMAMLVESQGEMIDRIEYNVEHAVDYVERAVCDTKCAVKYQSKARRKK
T2 sequence (P60881 other isoform, or with tags, fused parts or gaps with the stated changes, chain 3 of 3): as the sequence (P60881 other isoform, or with tags, fused parts or gaps S249C | K253C | S249C | K253C | mutant, chain 3 of 3) above

B1: α-soluble NSF attachment protein (α-SNAP) (natural protein, rat, UniProt P54921 1-295, looked up)
chain: MDTSGKQAEAMALLAEAERKVKNSQSFFSGLFGGSSKIEEACEIYARAANMFKMAKNWSAAGNAFCQAAQLHLQLQSKHDAATCFVDAGNAFKKADPQEAINCLMRAIEIYTDMGRFTIAAKHHISIAEIYETELVDVEKAIAHYEQSADYYKGEESNSSANKCLLKVAGYAAQLEQYQKAIDIYEQVGTSAMDSPLLKYSAKDYFFKAALCHFCIDMLNAKLAVQKYEELFPAFSDSRECKLMKKLLEAHEEQNVDSYTESVKEYDSISRLDQWLTTMLLRIKKTIQGDEEDLR
notes: α-SNAP, rat; His6 tag removed with tobacco etch virus protease; source: E. coli BL21(DE3), purified (Ni-NTA, Superdex 200)
stoichiometry N [1]: 1 α-SNAP per SNARE complex
binding result [2]: binds
